Experimental findings from US20250313859 are described below.

For this data set, the target named is anti-human ARSA (hARSA) antibodies in cerebrospinal fluid and serum of cynomolgus macaques given AAVhu68.CB7.CI.hARSAco.rBG.

B1: human ARSA enzyme expressed from the AAVhu68.CB7.CI.hARSAco.rBG transgene in cynomolgus macaques (protein)
chain: RPPNIVLIFADDLGYGDLGCYGHPSSTTPNLDQLAAGGLRFTDFYVPVSLCTPSRAALLTGRLPVRMGMYPGVLVPSSRGGLPLEEVTVAEVLAARGYLTGMAGKWHLGVGPEGAFLPPHQGFHRFLGIPYSHDQGPCQNLTCFPPATPCDGGCDQGLVPIPLLANLSVEAQPPWLPGLEARYMAFAHDLMADAQRQDRPFFLYYASHHTHYPQFSGQSFAERSGRGPFGDSLMELDAAVGTLMTAIGDLGLLEETLVIFTADNGPETMRMSRGGCSGLLRCGKGTTYEGGVREPALAFWPGHIAPGVTHELASSLDLLPTLAALAGAPLPNVTLDGFDLSPLLLGTGKSPRQSLFFYPSYPDEVRGVFAVRTGKYKAHFFTQGSAHSDTTADPACHASSSLTAHEPPLLYDLSKDPGENYNLLGGVAGATPEVLQALKQLQLLKAQLDAAVTFGPSQVARGEDPALQICCHPGCTPRPACCHCPDPHA
B1: the “ARSA activity levels in CSF (hydrolysis of 4-nitrocatechol sulfate)” value is “CSF ARSA activity levels returned to approximately baseline levels over the subsequent 28 days”.
